The source of these data is PMC5499572 (Nucleic Acids Research, 2017).

The target of assay [1] is T1, Rsa1p_(230-381) (S. cerevisiae, UniProt Q08932 230-381).
T1 sequence: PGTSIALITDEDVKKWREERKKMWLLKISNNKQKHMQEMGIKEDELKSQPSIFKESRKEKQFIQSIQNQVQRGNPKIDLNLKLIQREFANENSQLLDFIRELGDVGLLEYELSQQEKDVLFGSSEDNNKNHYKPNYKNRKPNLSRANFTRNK
Kind of assay: native gel or EMSA. On the technique in general: A gel shift assay detects complexes by their altered migration in electrophoresis.

The target in assay [2] is T2, His6TRX-Rrp9p (S. cerevisiae, UniProt Q06506 1-573).
T2 sequence: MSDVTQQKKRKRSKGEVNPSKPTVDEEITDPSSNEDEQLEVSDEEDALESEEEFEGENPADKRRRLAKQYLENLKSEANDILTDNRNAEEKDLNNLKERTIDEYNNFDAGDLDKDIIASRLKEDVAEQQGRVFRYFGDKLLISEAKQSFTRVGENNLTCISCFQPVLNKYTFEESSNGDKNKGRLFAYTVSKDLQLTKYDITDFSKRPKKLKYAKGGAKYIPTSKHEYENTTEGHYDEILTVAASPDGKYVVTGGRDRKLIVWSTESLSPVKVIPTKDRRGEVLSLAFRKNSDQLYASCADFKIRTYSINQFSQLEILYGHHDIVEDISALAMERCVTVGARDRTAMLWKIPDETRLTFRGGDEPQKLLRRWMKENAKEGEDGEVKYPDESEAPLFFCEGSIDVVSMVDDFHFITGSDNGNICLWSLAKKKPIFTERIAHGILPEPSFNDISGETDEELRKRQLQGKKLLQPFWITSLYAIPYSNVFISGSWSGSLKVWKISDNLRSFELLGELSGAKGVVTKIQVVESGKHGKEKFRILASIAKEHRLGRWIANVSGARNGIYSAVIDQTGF
Nature of the assay: native gel or EMSA.

Numbering of substitutions follows the chain as printed.

B1: Snu13p (recombinant, wild type) (natural protein)
chain: MSAPNPKAFPLADAALTQQILDVVQQAANLRQLKKGANEATKTLNRGISEFIIMAADCEPIEILLHLPLLCEDKNVPYVFVPSRVALGRACGVSRPVIAASITTNDASAIKTQIYAVKDKIETLLI
As for B1, the binding result in assay [1] and in assay [2] was “binds” in each case.

B2: Snu13p variant E72/A (recombinant) (natural protein)
chain: B1 chain with E72A
As for B2, the binding result in assay [2] is reported as “binds”.
